Data reported in the supplement of paper PMC12636428.

System: Saccharomyces cerevisiae
Test: transcriptional activation domain activity (GFP:mCherry ratio, weighted mean of sorted bins, harmonized to initial dataset scale) (arbitrary fluorescence ratio units); higher = stronger transcriptional activation
Conditions: beta-estradiol 1 µM; induction time 4 h
Procedure, shortened: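 For this assay, yeast diploids with a GFP reporter carried barcoded protein tiles at URA3, each fused to an estradiol-inducible synthetic transcription factor. Induction was a 1:5 dilution into SC with 1 uM beta-estradiol for 4 hours at 30 °C, followed by sorting into 8 bins by GFP:mCherry ratio and barcode sequencing. Tiles under 50 reads were dropped, and activation activity was calculated as the read-weighted mean of bin median fluorescence, averaged across barcodes and linearly mapped onto the initial dataset scale.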

LYLLIFFPVLLWRYLCIGLDSVLCCHIGFHFPYFMCYFFAIMSVSRSFFYSCI
transcriptional activation domain activity: 50700

KASARKKRAPKKSDEGKRGEKEGNRSANGSNDEDDDRDSSSSSSSNDEATSRS
transcriptional activation domain activity: 11200

WAPLNVGLERRLQTFVVLCHTLTIPIFLTLFFFLCAIPLFWPLLIPYLIYILL
transcriptional activation domain activity: 34700

RQIESMVAPCLVELRIWNIGAYANLCEYSTWLRLWWIRWSMYGIQFQDKTGKP
transcriptional activation domain activity: 61100

SAPAPVRVVSLTKEEPVPEVKEEVKEEVKPAPAAAAPKPKPAAAKKETPAAVK
transcriptional activation domain activity: 13400

SKHRRRHRSSSRERHRHRERDGEPSSSRHRSRRDRSRSKDRSKKEESHRSHRS
transcriptional activation domain activity: 24500

MVWIRSKSPIKWLYIWLYYVRRPRINVASYTTKWVTIESELVFLAENFLDDKC
transcriptional activation domain activity: 33300

VLSDKEKHRVASQHLNGESSPQLVPHSHHQPHSDTDEEDWESIGAASLRNNSL
transcriptional activation domain activity: 35500

LKGDHLDAVMVPKCESAADLHFVTDVIRHLRPDRHPSSTASASSSGSRREPVR
transcriptional activation domain activity: 33200

MEVVEGGGWKSFVYSCIRVIFLWGLDFGYFGLVACLISFCIGIFFSFFFPHYF
transcriptional activation domain activity: 27200

FLCIFSPFSRMISCLVYRSLFCSSYITSINLIVSVSKVVRRFIIRIFPLLFTI
transcriptional activation domain activity: 51400

TRSKKSAPRTSESSEDEEQRPSSRPSSRASRPASRASASRKRSDSTGTAGGGE
transcriptional activation domain activity: < 6570

SGNTGENEEDIAFASGLNGGTFDSMLEALPDDLYFTDFVSPFTAAATTSVTTK
transcriptional activation domain activity: 85100

TSTGRFAFRQHRDHTTIHEGSWVSAGPGYDVGNRMWLLSRVVINAVVLELSSL
transcriptional activation domain activity: 42400

MFYKLLIIYCFLFFRIYFLFHFFSYIYFFFFLFSISNFVISLPSNLFSHLLFF
transcriptional activation domain activity: 47000

WRVLSVFAVFNLGPYVFSLILYSSNAFLYTQWLSFTAVCLISLANVILFRFLL
transcriptional activation domain activity: 43700

LRKSQDRLWAERPWYFYPMYFNEHGNGIFPEVVHLNDAVVIGVLHYYLIQVLL
transcriptional activation domain activity: 46400

MGPMMQQIQQPCGDCRGEGEIINAKDKCKACNARKVTQTRKVLEVHIDRGMKD
transcriptional activation domain activity: 45700

GCRKDQRARRRRSPALANRPEMKGVCLKTGITKPKKPNSGERKTARIRLSSGR
transcriptional activation domain activity: 38900

FIHLMNMTQVVVLCIHRFVYGLVPLFEITTCAFWPLLVSLWHLTYLLFYAIMF
transcriptional activation domain activity: 64100

DEDAEGEDDPESAEPAKKRGRPPGSGKKRKPAAEKPKPQPGRGRGRPKKSEAA
transcriptional activation domain activity: 18000

MYICVRKVYVHFDMNLRVYWIVAIMVKCICGLVELCLITSPPYIMLVLSKLFL
transcriptional activation domain activity: 32100

MIVRLSSVPVSGCSFVVIEALLDFLVLPLRHFNLFIAPTSFFSHLYVFFFFGR
transcriptional activation domain activity: 56700

MPTTSHSLFLRYVFLFVAWLVFREVFALMGFFLLLIFLIPKIVKVPFFFFFFL
transcriptional activation domain activity: 55000

MFLCFFHVFMLYLCHYVIVMLIYFLIYFMLFLLFMFLNTILQYEFLILHFCFI
transcriptional activation domain activity: 47500

MFLGFFFLFFYLFIMDHILDFWLLLRIIILIFAYSHCSFLRTLILFFRINFFF
transcriptional activation domain activity: 69000

TSLESAPVHVPMHCGIQGVVGSLGVLVSASVVQCVRASIARDSEGGMEWMRVE
transcriptional activation domain activity: 33600

PKDGAKEEKKSSKSRGEEKRSRSDRKEREREEKSSKGSASDKAEQPPKATASS
transcriptional activation domain activity: 6730

ICVLEKMLLFYFYFPLPFKLTLDQHLSLFSLLCFFFRVMPYTFWLKSYPMLVL
transcriptional activation domain activity: 74200

RISGRVIWSLLICHASWYLNFFIQVGVLSKRLSSPVVLCGVVSFQLLNILLIT
transcriptional activation domain activity: 53000

MFLCLQFRYLFCCGLKHWLRWGDALCLRVLMQGRCCWCGKRKFMLSVSILSWR
transcriptional activation domain activity: 53600

GGGNRGRWPGDDSSDSSSSENERRGRRERRRRHRRRSASPDARRSGKGDAPKQ
transcriptional activation domain activity: < 6570

AVKKEPTPEEDEEEEEEEPAPKPKARGGRKAKASAAVDADAAQAKPKRGRAKK
transcriptional activation domain activity: 30300

QAFTIVDPTPPIRFYDLHRLHLTLVHSPMRFFHVAPIIPFLLSYLIELYSLFY
transcriptional activation domain activity: 43100

MYHALHKSGLSDTYIIQDVGVPFDAVEAFYKWLHETLHIYPLWLCPIRVRRYT
transcriptional activation domain activity: 44700

VYPEKVIFAPFEIFVVLVSFFNLVLFLFCFPFTLYPPKRWLRIVVLLFLFFFC
transcriptional activation domain activity: 50400

FPRLTDMVCELEDYLRPLAEHARAADVELVEIAVVSVYVNILNFSWKARCVFV
transcriptional activation domain activity: 43600

LLKGLTLRNPAILKLEEDEDEAALLTQYAVKCSEVDKFLLTYVILKLKLIKGK
transcriptional activation domain activity: 33200

DTKLIAISDANELKGFDSQCIEEWDPILFSAAEIWPTKGKPIALVEMDPIDFD
transcriptional activation domain activity: 145000

MCDLFYTHLISPLFPNMPFWVFFCRLFLLFSLLQCSFICGPFVAVLSYCWLSF
transcriptional activation domain activity: 54600

VWVASKVEEDEASDYAAPEKQAKPKRQRGRPKKGGEDKSDVTSTAAAQESAAK
transcriptional activation domain activity: 24500

MLAYRSQQGWSEGDFLACRWFFSFFFPLFLPLSPPSFLCPFSFLFLFFLLLHL
transcriptional activation domain activity: 45300

AHYLNHNPHQPSMGFDQALGLKLSPSSSGLLSTNESNAIEQFLDNLISQDMMS
transcriptional activation domain activity: 110000

FCQISGFSLAVGIESSDIAVLLIALHSVMYIFSPLSGLYPYRQLAYLVYYLFP
transcriptional activation domain activity: 49400

VVFNQIWIYFFIYTMIFICLILVAFYTVLLVLLIHPKKIPHNTRTVLNVYRAR
transcriptional activation domain activity: 66100

VVLYMLRFLGLMHIMLFSHIDQRCKDFAKVYLRGRIIRYTCPFFSRSSLHKIV
transcriptional activation domain activity: 49400

DRSRATEEEDGKSTKRSRARSRTFTFSKSDKGGDGSPSKKVRSTSKSRAKHDG
transcriptional activation domain activity: 31100

SGSGAEGASGTEHRRRASTRGRGRGRGRGGRAGRGGRAKTNGEGAELAGEEAG
transcriptional activation domain activity: < 6570

SSSDFVPVNFEADSLPYTPTTLDGLASLTSLEDLFSADDALASFDWSEWPWIY
transcriptional activation domain activity: 156000

ARVQVNFWFFLFVYYGFYNLTALIWITKVFNLYSLNWWPSMLGFPLTISLIAI
transcriptional activation domain activity: 75700

ALPERIKTFHAHGIFLALHCFLLQHGPQPISIWLLLALIKGRRRCLFPSIFFC
transcriptional activation domain activity: 36200

IGLQVLLGWSYVMINPLAIYSSPYLILFSFSSLVYLVLVNVLTLPSSLPFFHP
transcriptional activation domain activity: 87600

IGLQMASFVLGGFVYFGLSFQSSNYVVLLYYEFAALSQNVYLTVAIIWRLLIF
transcriptional activation domain activity: 72300

LLESLGHDDSLEFFFVSGMLRYVRFGFWRRIIGYQFRNLRTQITRSIYYDWYR
transcriptional activation domain activity: 45500

GAKEEGGKKEAGGEKKEGSGKEGAKEGGEKGAKEGGEKKEGGEKGEGKEGGEG
transcriptional activation domain activity: 20300

MADRGTGAGGEGRGRGGFGRGGRGRGGPRGRGGRGGRGGRKDEEKEWVPVTKL
transcriptional activation domain activity: 24800

NPMTFMGSTQRLAAIRNLRSNPKFLFVHLPNILSFLCIIVGVVWLLLLPLNEY
transcriptional activation domain activity: 33900

KFWFFLLFYYGFYNLTALLMVSQYFNLYSFHWWPKSIGGLWSTFFFWLFSMFL
transcriptional activation domain activity: 58400

PYLFIIRLLRLYKLPLIFMTSPVYIKTLKMMQNALGIGQTVAVIFPLTFWFCI
transcriptional activation domain activity: 27600

NLPSLIGIQLLSSMGEYVMLWLIFVGTVIYYAGWVTLVIDGFCRFLNIRCLVI
transcriptional activation domain activity: 56900

FTYMDRLQLIQAPFPWRDRMALTAITEFVATYYQNMHVDITVTMRKLGYLEKL
transcriptional activation domain activity: 60800

MGDCIKVHVSFHCRFLVFIYTHTFFLFLFYSSSIVFCFIYIYIFPFISFFWGL
transcriptional activation domain activity: 36000

NNCVGYFNYCHFIRLIVYANITTIYIFVLLCCRAHQIIFIQSASLEVGFLCVN
transcriptional activation domain activity: 66500

PPASTHTSVTSSPPVNDQWKDYALVLVRLMPMDKLSKPSFRYIIKSTYVRAVC
transcriptional activation domain activity: 58000

EVKETKEGESQSPAKQEVVQEETVKPSPPQPPQQTKQQKKKKLVLTSGGGGRG
transcriptional activation domain activity: < 6570

MLWVCTSRKGESRVVCLGLAHLSIWIRGLLVLERILVCSMSLSCWRVGILKCT
transcriptional activation domain activity: 53800

EAVESKPVKKAKGKPKKAIETPEPDAEESTGAEAVESKPVKRAKGKSKKAIKT
transcriptional activation domain activity: 53100

TDDYFQTVLMSGLLRVLKDPASSGQHHTVIEAIMAIFKTWIMLAFAAVTRSSV
transcriptional activation domain activity: 56900

LRDLERSFDLLRFTWVPSIACWILPLLTRPDFSTLLSVLGETIQRFSSNFVIM
transcriptional activation domain activity: 73700

MVSCYIPLLIGFLGLVGPVLSRFFFLFSLFSWLIGRLVLYLILFLSSLCHGLG
transcriptional activation domain activity: 30300

ANPLSDSASFLSEENEDDAFGALNYNSLDATTMSAFDNNVDPFNILKSSPAQD
transcriptional activation domain activity: 66600

MIDILFFVLFHFFDVLFFSLFCLFLCIILFSSLTFLIYYFFFFFLFFPFFGLF
transcriptional activation domain activity: 36500

SEGLLCPLPRYPPHPIVSQLMQTSALRSLQTIVQLQRAHFMTLLFWNILLAFY
transcriptional activation domain activity: 57100

MDNTTDLYNYLVDMGLKFLLFWNMVNCKFCHLCLLMPFDITYIIFIFILLLEF
transcriptional activation domain activity: 70300

IGIVYLLLCPFAFIFAYYFMRLRRTLIGSMPLSVINDPLLVELKVRFQLLDRG
transcriptional activation domain activity: 42000

MLCADLFFRFVLVKILVFILYDYGRGECDIVIMLVFFFFFPPPPPFFSFFFLF
transcriptional activation domain activity: 65300

RLLNKTRQCHDDGIAVLQNSIETISTTLVLWTHREVIGPLQLNLNWVAMSFAC
transcriptional activation domain activity: 48200

RKPETAGEGSGAEGASGGENHRRGSTRGRGRGRGRGGRSSRGGRSRKDGAGAE
transcriptional activation domain activity: 33500

DPEEVQGGKQRAEGNQGGGGRQGRRGPRGAEGQDHPGVQRPHRRPRRGHQAHL
transcriptional activation domain activity: 33200

IWVHHVAYVRNCLAQLIFTWLDEYWRPLSDACILPRLRSWVLSRFRDAQLVQG
transcriptional activation domain activity: 78700

MRHVASRWPILPRLLVPIFHLLAWFLIPVGRLCIRSFPLIFSVVCFLCAFSSC
transcriptional activation domain activity: 51100

AAKPAPKKAPGRPKKAAAEPEPASEPTESEEPKPKKAGGRPRKAAAPAAEPEA
transcriptional activation domain activity: 40700

GTCGKLGLLCRSMALYSPEVTVVTVSGGGGSSRWVEYLELALRTTGRVAVLLT
transcriptional activation domain activity: 64500
